The test has as its target lactosylceramide-loaded recombinant human CD1d complex (human) (UniProt P15813). Kind of test: SPR.

Drawing on paper PMC2889927, this text covers Kd for 1 substance.

Sequence of recombinant soluble iNKT TCR 4C1369 (Vα24/Vβ11 heterodimer) (A0A0B4J240 whole entry, looked up, tested part not stated, one chain of several): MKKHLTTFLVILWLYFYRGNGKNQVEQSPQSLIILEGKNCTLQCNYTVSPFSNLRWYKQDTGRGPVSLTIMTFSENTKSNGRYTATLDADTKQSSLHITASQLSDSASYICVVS
Sequence of lactosylceramide-loaded recombinant human CD1d complex (human) (P15813 20-335, one chain of several): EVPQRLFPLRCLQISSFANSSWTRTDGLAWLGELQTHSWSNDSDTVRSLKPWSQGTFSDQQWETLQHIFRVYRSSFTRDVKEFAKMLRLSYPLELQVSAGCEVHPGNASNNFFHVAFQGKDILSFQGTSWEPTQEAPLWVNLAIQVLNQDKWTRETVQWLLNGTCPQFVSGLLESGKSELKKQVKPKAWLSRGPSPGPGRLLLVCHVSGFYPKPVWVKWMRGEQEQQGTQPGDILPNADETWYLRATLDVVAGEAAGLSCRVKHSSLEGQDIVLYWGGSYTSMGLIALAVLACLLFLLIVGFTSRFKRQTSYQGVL

On to “recombinant soluble iNKT TCR 4C1369 (Vα24/Vβ11 heterodimer) (from UniProt A0A0B4J240)”, for which the Kd turned out to be 2.03 µM.
